Data on three molecules can be found in article PMC3063399 (Cell, 2011).

The term Kd denotes a measure of binding affinity in units of concentration. As usually defined, the Km is the concentration of substrate that gives half-maximal velocity.

Like-named read-outs stand apart in the source and are kept apart here.

For series [1], the target named is PAN ATPase complex (UniProt Q58576). Description: fluorescence polarisation. For orientation: In fluorescence polarisation assays a small probe gives low polarisation when free and higher when bound to something large.
Series [2] has the same target. The experiment in a line: fluorescence polarisation. This is another data set of the same source.
A further series deals with T1, PAN (Methanocaldococcus jannaschii, UniProt Q58576).
T1 sequence (Q58576 1-430): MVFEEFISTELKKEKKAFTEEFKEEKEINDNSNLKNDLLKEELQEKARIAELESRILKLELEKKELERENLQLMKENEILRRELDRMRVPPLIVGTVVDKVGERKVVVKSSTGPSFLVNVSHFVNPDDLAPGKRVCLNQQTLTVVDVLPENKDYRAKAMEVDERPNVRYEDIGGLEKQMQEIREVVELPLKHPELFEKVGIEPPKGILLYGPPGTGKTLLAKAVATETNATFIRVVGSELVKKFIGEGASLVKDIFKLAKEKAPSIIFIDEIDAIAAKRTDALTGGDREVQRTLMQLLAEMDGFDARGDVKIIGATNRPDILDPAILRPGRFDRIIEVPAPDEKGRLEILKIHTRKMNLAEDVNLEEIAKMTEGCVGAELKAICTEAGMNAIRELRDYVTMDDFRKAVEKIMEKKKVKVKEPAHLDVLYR
Description: α-32P-ATP binding, rapid spin gel filtration. A general note: SEC sorts molecules by how far they enter the pores of the column.

Substrate in series [3]: Nc1ncnc2c1ncn2[C@@H]1O[C@H](COP(=O)(O)OP(=O)(O)OP(=O)(O)O)[C@@H](O)[C@H]1O
The experiment in a line: ATPase, inorganic phosphate release. The series is classed as biochemical, Methanocaldococcus jannaschii. The note with it: 45 °C.

“FITC-casein (from UniProt P02666 16-224) (natural protein)”: the change in polarization was 7 mP with PAN ATPase complex [1] and 56 mP with PAN ATPase complex [2]. In turn, `Nc1ncnc2c1ncn2[C@@H]1O[C@H](COP(=O)(O)OP(=O)(O)OP(=O)(O)O)[C@@H](O)[C@H]1O` [ATP] yielded a Kd at PAN of 13 µM.

B1: PAN (Methanocaldococcus jannaschii DSM 2661) (protein)
chain: MVFEEFISTELKKEKKAFTEEFKEEKEINDNSNLKNDLLKEELQEKARIAELESRILKLELEKKELERENLQLMKENEILRRELDRMRVPPLIVGTVVDKVGERKVVVKSSTGPSFLVNVSHFVNPDDLAPGKRVCLNQQTLTVVDVLPENKDYRAKAMEVDERPNVRYEDIGGLEKQMQEIREVVELPLKHPELFEKVGIEPPKGILLYGPPGTGKTLLAKAVATETNATFIRVVGSELVKKFIGEGASLVKDIFKLAKEKAPSIIFIDEIDAIAAKRTDALTGGDREVQRTLMQLLAEMDGFDARGDVKIIGATNRPDILDPAILRPGRFDRIIEVPAPDEKGRLEILKIHTRKMNLAEDVNLEEIAKMTEGCVGAELKAICTEAGMNAIRELRDYVTMDDFRKAVEKIMEKKKVKVKEPAHLDVLYR
Consider B1, for which the Km in series [3] is 263 ± 18 µM.
